Target: the molecule itself
Experiment: SEC; lysate of transfected HeLa cells (RIPA buffer) on Superdex S200 HR10/30 in hypotonic buffer (20 mM HEPES, 10 mM KCl, 1 mM MgCl2, 1 mM EDTA, 1 mM EGTA, 1 mM DTT, pH 7.5); fractions precipitated with trichloroacetic acid and blotted with anti-myc; molecular weight markers as standard

B1: human α-galactosidase (α-Gal A), wild type (enzyme, UniProt P06280 32-429, looked up)
chain: LDNGLARTPTMGWLHWERFMCNLDCQEEPDSCISEKLFMEMAELMVSEGWKDAGYEYLCIDDCWMAPQRDSEGRLQADPQRFPHGIRQLANYVHSKGLKLGIYADVGNKTCAGFPGSFGYYDIDAQTFADWGVDLLKFDGCYCDSLENLADGYKHMSLALNRTGRSIVYSCEWPLYMWPFQKPNYTEIRQYCNHWRNFADIDDSWKSIKSILDWTSFNQERIVDVAGPGGWNDPDMLVIGNFGLSWNQQVTQMALWAIMAAPLFMSNDLRHISPQAKALLQDKDVIAINQDPLGKQGYQLRQGDNFEVWERPLSGLAWAVAMINRQEIGGPRSYTIAVASLGKGVACNPACFITQLLPVKRKLGFYEWTSRLRSHINPTGTVLLQLENTMQMSLKDLL
notes: human α-galactosidase A, full-length cDNA NM_000169 cloned in pcDNA4/TO/myc-His; The vector pcDNA4/TO/myc-His may also add a His tag after the Myc tag; also called WT α-Gal; Agal; source: HeLa, transiently transfected, in lysate (RIPA buffer); not shown: Myc, C-terminal, kept
  stoichiometry N: 2

— article PMC4770091, “Structural hot spots for the solubility of globular proteins” (Nature Communications, 2016)
